The text below walks through data of PMC9623368, “P38 kinases mediate NLRP1 inflammasome activation after ribotoxic stress response and virus infection” (The Journal of Experimental Medicine, 2022).

This assay deals with T1, GST-NLRP1^PYD (Homo sapiens, UniProt Q9C000).
T1 construct: NLRP1, human, pyrin domain (PYD), aa 1-92; Vector: customised destination vector based on pGEX-2T; also called GST-NRLP1^PYD; source: E. coli BL21, purified (glutathione resin, gel filtration)
Briefly: ELISA; GST-NLRP1^PYD or GST in PBS immobilised on ELISA plates at 1 ug/ml overnight; serial tenfold dilutions of HA-tagged nanobodies in 10% FBS/PBS; detected with HRP-coupled anti-HA and TMB, absorption at 450 nm. The following applies: both partners purified.

T1 sequence (Q9C000 1-92): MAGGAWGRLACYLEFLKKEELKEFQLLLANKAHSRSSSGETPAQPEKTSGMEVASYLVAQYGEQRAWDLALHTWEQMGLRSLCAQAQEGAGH

B1: VHH_(NLRP1 PYD 1) (VHH)
VHH: QVQLVESGGGLVEAGGSLRLSCAASGRTFSNYALSWFRQAPGKERELVAAISWSGDYTYYADSVKGRFTISRDNAKNTVYLQMHSLKPEDTAVYYCNADSRSGTYSPSSGSWGQGTQVTVSS
notes: Alpaca nanobody raised against His-NLRP1^PYD, selected by phage display on GST-NLRP1^PYD; cloned into a pHEN6-based periplasmic vector with C-terminal HA-His6; also called VHHPYD 1; NLRP1^PYD nanobody 1; source: E. coli WK6, periplasmic extract, purified (Ni-NTA, desalting); not shown: HA, C-terminal, kept
Regarding B1, the binding result was “binds”.

B2: VHH_(NLRP1 PYD) 2 (VHH)
VHH: QVQLVESGGGLVQTGGSLRLSCVASGGTFSRFTMAWFRQAPGKEREFVAGVSWSGGLTHYSDSVKGRFTISRDNAKNTLYLQMSSLKPEDTAVYYCYGQSTVAGATIDYWGQGTQVTVSS
notes: Alpaca nanobody raised against His-NLRP1^PYD, selected by phage display on GST-NLRP1^PYD; cloned into a pHEN6-based periplasmic vector with C-terminal HA-His6; also called VHHPYD 2; NLRP1^PYD nanobody 2; source: E. coli WK6, periplasmic extract, purified (Ni-NTA, desalting); not shown: HA, C-terminal, kept
Turning to B2, the binding result was “binds”.
